Like-named read-outs stand apart in the source and are kept apart here.
What was measured:
Experiment in all cases: cryo-EM structure
cryo-EM structure = molecular target: the molecule itself
[1] = molecular target: T1, TatC with a C-terminal 3XFLAG tag (E. coli), P69423; conditions: remark: other sources report otherwise
T1 chain: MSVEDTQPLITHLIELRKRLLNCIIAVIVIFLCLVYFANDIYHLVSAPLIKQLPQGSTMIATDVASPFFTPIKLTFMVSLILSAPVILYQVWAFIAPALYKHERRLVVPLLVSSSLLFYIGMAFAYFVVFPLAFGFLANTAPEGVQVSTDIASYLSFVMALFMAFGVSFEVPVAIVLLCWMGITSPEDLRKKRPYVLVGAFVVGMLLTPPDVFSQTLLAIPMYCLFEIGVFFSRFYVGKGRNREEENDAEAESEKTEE

TatB3C3 complex [2] = molecular target: T2, TatB3C3 complex (E. coli, UniProt P69425;P69423)
T2 sequence 1: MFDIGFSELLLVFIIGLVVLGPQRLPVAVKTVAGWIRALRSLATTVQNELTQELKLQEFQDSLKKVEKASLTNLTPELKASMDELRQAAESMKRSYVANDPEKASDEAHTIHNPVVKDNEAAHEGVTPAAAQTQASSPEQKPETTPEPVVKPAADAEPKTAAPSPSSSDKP
T2 sequence 2: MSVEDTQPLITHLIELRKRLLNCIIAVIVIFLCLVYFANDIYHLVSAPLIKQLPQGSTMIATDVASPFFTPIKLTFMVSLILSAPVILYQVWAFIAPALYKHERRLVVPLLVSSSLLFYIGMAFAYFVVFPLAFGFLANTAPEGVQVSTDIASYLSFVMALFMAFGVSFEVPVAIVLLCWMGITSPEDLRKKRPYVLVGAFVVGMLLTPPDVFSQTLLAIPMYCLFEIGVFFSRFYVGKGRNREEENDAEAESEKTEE

TatB3C3 complex [3] = molecular target: T2, TatB3C3 complex; remark: listed apart in the source

B1: TatB (natural protein)
chain: MFDIGFSELLLVFIIGLVVLGPQRLPVAVKTVAGWIRALRSLATTVQNELTQELKLQEFQDSLKKVEKASLTNLTPELKASMDELRQAAESMKRSYVANDPEKASDEAHTIHNPVVKDNEAAHEGVTPAAAQTQASSPEQKPETTPEPVVKPAADAEPKTAAPSPSSSDKP
cryo-EM structure
  stoichiometry N: 3

B2: TatC with a C-terminal 3XFLAG tag, P69423 1-258 (natural protein)
chain: MSVEDTQPLITHLIELRKRLLNCIIAVIVIFLCLVYFANDIYHLVSAPLIKQLPQGSTMIATDVASPFFTPIKLTFMVSLILSAPVILYQVWAFIAPALYKHERRLVVPLLVSSSLLFYIGMAFAYFVVFPLAFGFLANTAPEGVQVSTDIASYLSFVMALFMAFGVSFEVPVAIVLLCWMGITSPEDLRKKRPYVLVGAFVVGMLLTPPDVFSQTLLAIPMYCLFEIGVFFSRFYVGKGRNREEENDAEAESEKTEE
[1]
  stoichiometry N: 3

B3: SufI–8×His (natural protein)
chain: MSLSRRQFIQASGIALCAGAVPLKASAAGQQQPLPVPPLLESRRGQPLFMTVQRAHWSFTPGTRASVWGINGRYLGPTIRVWKGDDVKLIYSNRLTENVSMTVAGLQVPGPLMGGPARMMSPNADWAPVLPIRQNAATLWYHANTPNRTAQQVYNGLAGMWLVEDEVSKSLPIPNHYGVDDFPVIIQDKRLDNFGTPEYNEPGSGGFVGDTLLVNGVQSPYVEVSRGWVRLRLLNASNSRRYQLQMNDGRPLHVISGDQGFLPAPVSVKQLSLAPGERREILVDMSNGDEVSITCGEAASIVDRIRGFFEPSSILVSTLVLTLRPTGLLPLVTDSLPMRLLPTEIMAGSPIRSRDISLGDDPGINGQLWDVNRIDVTAQQGTWERWTVRADEPQAFHIEGVMFQIRNVNGAMPFPEDRGWKDTVWVDGQVELLVYFGQPSWAHFPFYFNSQTLEMADRGSIGQLLVNPVP
TatB3C3 complex [2]
  stoichiometry N: 1
TatB3C3 complex [3]
  stoichiometry N: 2
